The target in test [1] is cynomolgus BTLA on cells (cynomolgus). Kind of test: FACS on Expi293.cynoBTLA cells, AF647 anti-human IgG Fc detection.
In test [2] the target is human BTLA (B- and T-lymphocyte attenuator) on cells (human) (UniProt Q7Z6A9). Kind of test: FACS on HEK293 cells overexpressing human BTLA, AF647 anti-human IgG Fc detection.
For test [3] the target is unchanged. Kind of test: FACS, primary human T cells, donor 149, AF647 anti-human IgG Fc secondary antibody.
Test [4] shares this target. Kind of test: FACS, primary human T cells, donor 1709, AF647 anti-human IgG Fc secondary antibody.
For test [5] the target is unchanged. Nature of the test: FACS, primary human B cells, donor 149, AF647 anti-human IgG Fc secondary antibody.
In test [6] the target is cynomolgus BTLA on cells (cynomolgus). Kind of test: FACS on Expi293 cells overexpressing cynomolgus BTLA, AF647 anti-human IgG Fc detection.
Test [7] concerns the target human BTLA (B- and T-lymphocyte attenuator) on cells (human) (UniProt Q7Z6A9). Kind of test: FACS competition on HEK293.BTLA cells; competitor DL650-conjugated soluble HVEM.
The target is the same in test [8]. Kind of test: FACS, primary human B cells, donor 1709, AF647 anti-human IgG Fc secondary antibody.
Test [9] has the same target. Nature of the test: FACS competition on HEK293T.hBTLA cells; competitor hrHVEM-His-DL650.
Test [10] shares this target. Nature of the test: FACS on HEK293T.hBTLA cells, AF647 anti-human IgG Fc detection.
For test [11], the target named is recombinant human BTLA (human) (UniProt Q7Z6A9). Nature of the test: ELISA on recombinant human BTLA.
The target in test [12] is human BTLA (B- and T-lymphocyte attenuator) on cells (human) (UniProt Q7Z6A9). Kind of test: cell-based or functional assay.

One molecule from patent US20250304693A1 can be followed below.

Sequence of human BTLA (B- and T-lymphocyte attenuator) on cells (human) (Q7Z6A9 31-289): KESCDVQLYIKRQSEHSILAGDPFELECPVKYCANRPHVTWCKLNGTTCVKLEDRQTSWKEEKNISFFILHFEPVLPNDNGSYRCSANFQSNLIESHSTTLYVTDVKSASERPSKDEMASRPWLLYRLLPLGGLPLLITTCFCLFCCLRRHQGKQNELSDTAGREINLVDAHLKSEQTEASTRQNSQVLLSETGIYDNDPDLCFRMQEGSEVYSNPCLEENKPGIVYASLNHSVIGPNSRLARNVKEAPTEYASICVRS
Sequence of cynomolgus BTLA on cells (cynomolgus) (chain, as listed by the source): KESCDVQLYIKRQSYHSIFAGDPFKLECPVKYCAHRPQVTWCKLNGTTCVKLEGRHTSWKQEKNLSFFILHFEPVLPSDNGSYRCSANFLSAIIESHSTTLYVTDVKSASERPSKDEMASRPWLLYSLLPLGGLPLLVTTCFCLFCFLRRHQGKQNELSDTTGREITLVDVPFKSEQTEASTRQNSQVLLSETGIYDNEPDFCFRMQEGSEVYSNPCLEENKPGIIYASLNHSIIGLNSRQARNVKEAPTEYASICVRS
Sequence of recombinant human BTLA (human) (Q7Z6A9 31-157 limits assumed): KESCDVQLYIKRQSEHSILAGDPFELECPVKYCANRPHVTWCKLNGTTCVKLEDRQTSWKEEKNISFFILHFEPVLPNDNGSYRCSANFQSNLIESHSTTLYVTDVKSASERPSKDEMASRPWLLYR

B1: JS004 (antibody, INN chains, looked up, V domains shown)
VH: QVQLVQSGAEVKKPGASVKLSCKASGYNFKHTYAHWVRQAPGQGLEWIGRIDPANGNTKYDPKFQGRATMTADTASNTAYLELSSLRSEDTAVYYCVADHYGSSLLDYWGQGTLVTVSS
VL: DVVMTQTPLSLSVTPGQPASISCKSSQSLLDSDGKTYLNWFQQRPGQSPRRLIYLVSKLDSGVPDRFSGSGSGTDFTLKISRVEAEDVGVYYCWQGTYFPYTFGQGTKLEIK
As to B1, the EC50 came to 5.25 nM in test [1]; 0.804 nM in test [2]; 1.3 nM in test [3]; 1.1 nM in test [4]; 0.19 nM in test [5]; 0.561 nM in [6]. In addition, the EC50 came out at 0.19 nM in test [8], 5.97 nM in test [10] and 2.43 nM in test [11]. For the same molecule, the Emax(%) in test [3] came out at 97%; in [4], 56%; in [5] it was 73%; in test [8], 82%. Also, the IC50 in test [7] was 4.32 nM; in test [9], 1.47 nM. In [12], this molecule had a BTLA-HVEM blockade reporter assay, EC50 of 10.4 nM. In addition, the Reporter EC50 in [12] worked out at 13.1 nM.
